{
  "source": "paper PMC8263772",
  "about": "(2021)",
  "target": "SARS-CoV-2 spike (S) protein receptor binding domain (RBD), wild type (SARS-CoV-2, UniProt P0DTC2)",
  "test": "SPR",
  "data": [
    {"binder": "dog angiotensin-converting enzyme 2 (dACE2) ectodomain, 6xHis (receptor) MQSTEDLVKTFLEKFNYEAEELSYQSSLASWNYNINITDENVQKMNNAGAKWSAFYEEQSKLAKTYPLEEIQDSTVKRQLRALQHSGSSVLSADKNQRLNTILNSMSTIYSTGKACNPSNPQECLLLEPGLDDIMENSKDYNERLWAWEGWRSEVGKQLRPLYEEYVALKNEMARANNYEDYGDYWRGDYEEEWENGYNYSRNQLIDDVEHTFTQIMPLYQHLHAYVRTKLMDTYPSYISPTGCLPAHLLGDMWGRFWTNLYPLTVPFGQKPNIDVTNAMVNQSWDARKIFKEAEKFFVSVGLPNMTQEFWENSMLTEPSDSRKVVCHPTAWDLGKGDFRIKMCTKVTMDDFLTAHHEMGHIQYDMAYAAQPFLLRNGANEGFHEAVGEIMSLSAATPNHLKNIGLLPPSFFEDSETEINFLLKQALTIVGTLPFTYMLEKWRWMVFKGEIPKDQWMKTWWEMKRNIVGVVEPVPHDETYCDPASLFHVANDYSFIRYYTRTIYQFQFQEALCQIAKHEGPLHKCDISNSSEAGQKLLEMLKLGKSKPWTYALEIVVGAKNMDVRPLLNYFEPLFTWLKEQNRNSFVGWNTDWSPYADQSIKVRISLKSALGEKAYEWNNNEMYLFRSSIAYAMRQYFSEVKNQTIPFVEDNVWVSDLKPRISFNFFVTSPGNVSDIIPRTEVEEAIRMYRSRINDVFRLDDNSLEFLGIQPTLGPPYEPPVT", "values": [
      {"measurement": "koff", "result": 0.0139, "unit": "s⁻¹"}
    ]}
  ]
}
